Consider eleven molecules from US20220088148A1 (HANMI PHARM, published 2022).

The labels stand for the following.
T1: human GIP receptor (human, UniProt P48546 22-466)
T1 sequence (looked up): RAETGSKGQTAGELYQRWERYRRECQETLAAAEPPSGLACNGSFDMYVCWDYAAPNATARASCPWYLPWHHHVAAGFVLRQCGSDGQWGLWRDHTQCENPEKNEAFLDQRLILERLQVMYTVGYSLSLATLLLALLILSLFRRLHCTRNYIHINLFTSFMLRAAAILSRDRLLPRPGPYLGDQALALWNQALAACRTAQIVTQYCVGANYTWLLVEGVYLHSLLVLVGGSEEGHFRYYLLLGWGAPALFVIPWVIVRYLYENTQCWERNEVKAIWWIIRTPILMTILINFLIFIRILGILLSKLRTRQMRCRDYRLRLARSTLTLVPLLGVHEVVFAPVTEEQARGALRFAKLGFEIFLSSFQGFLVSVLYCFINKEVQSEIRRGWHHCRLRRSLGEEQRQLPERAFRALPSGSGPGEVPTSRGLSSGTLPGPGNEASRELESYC

Bridges are numbered along the chain shown (N, C = ends). Where no end group is shown, it is not given here. [ ]: non-standard residue; d: D form. The star is where a group is joined. Acetyl(2-(4-imidazolyl)) = O=C(Cc1c[nH]cn1)*; Aib = CC(C)(N)C(=O)O

human GCG receptor, sequence (P47871 26-477): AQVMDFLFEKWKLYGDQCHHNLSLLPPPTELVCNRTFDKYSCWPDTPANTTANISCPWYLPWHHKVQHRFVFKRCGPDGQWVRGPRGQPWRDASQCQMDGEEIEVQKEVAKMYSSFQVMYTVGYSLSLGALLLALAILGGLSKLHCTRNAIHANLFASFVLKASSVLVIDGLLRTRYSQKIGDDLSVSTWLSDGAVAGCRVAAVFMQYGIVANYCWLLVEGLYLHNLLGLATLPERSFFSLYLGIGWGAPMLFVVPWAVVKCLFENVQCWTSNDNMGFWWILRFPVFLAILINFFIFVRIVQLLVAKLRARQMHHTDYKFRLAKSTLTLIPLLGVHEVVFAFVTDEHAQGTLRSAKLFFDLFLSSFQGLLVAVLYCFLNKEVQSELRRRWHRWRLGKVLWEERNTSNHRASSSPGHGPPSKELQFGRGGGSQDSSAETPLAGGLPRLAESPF

One test deals with T1, human GIP receptor. The test can be described thus: cell-based or functional assay.
For the molecule {Acetyl(2-(4-imidazolyl))}-[Aib]QGTFTSDYSIAMDEIHQKDFVNWLLNTKC (bridge 15-19) [triple agonist of SEQ ID NO: 94], the “In vitro activity (%) vs. GIP, cAMP EC50” value was under 0.1%.

Regarding {Acetyl(2-(4-imidazolyl))}-[Aib]QGTFTSDYSIAMDEIHQKDFVNWLLAQKC (bridge 15-19) [triple agonist of SEQ ID NO: 92], the “In vitro activity (%) vs. GIP, cAMP EC50” value was 0.4%.

Take {Acetyl(2-(4-imidazolyl))}-[Aib]QGTFTSDYSKYLDEKRQKEFVQWLLDTKC (bridge 15-19) [triple agonist of SEQ ID NO: 89]: the “In vitro activity (%) vs. GIP, cAMP EC50” value was under 0.1%.

For the molecule {Acetyl(2-(4-imidazolyl))}-[Aib]QGTFTSDYSIAMDEIHQKDFVNWLLNTC (bridge 15-19) [triple agonist of SEQ ID NO: 87], the “In vitro activity (%) vs. GIP, cAMP EC50” value is under 0.1%.

Take {Acetyl(2-(4-imidazolyl))}-[Aib]QGTFTSDYSKYLDEKRQKEFVNWLLAQKC (bridge 15-19) [triple agonist of SEQ ID NO: 93]: the “In vitro activity (%) vs. GIP, cAMP EC50” value came out at 0.7%.

Consider [Acetyl(2-(4-imidazolyl))][Aib]QGTFTSDYSIAMDEIHQKDFVNWLLAQC (bridge 16-20) [triple agonist of SEQ ID NO: 85], for which the “In vitro activity (%) vs. GIP, cAMP EC50” value turned out to be 0.3%.

{Acetyl(2-(4-imidazolyl))}-[Aib]EGTFTSDYSIAMDEIHQKDFVDWLLAEKC (bridge 15-19) [triple agonist of SEQ ID NO: 91]: the “In vitro activity (%) vs. GIP, cAMP EC50” value is 0.3%.

Regarding {Acetyl(2-(4-imidazolyl))}-[Aib]QGTFTSDYSKYLDEKRQKEFVNWLLAQC (bridge 15-19) [triple agonist of SEQ ID NO: 86], the “In vitro activity (%) vs. GIP, cAMP EC50” value was 0.2%.

With {Acetyl(2-(4-imidazolyl))}-[Aib]QGTFTSDYSKYLDEKRQKEFVQWLLNTKC (bridge 15-19) [triple agonist of SEQ ID NO: 88], the “In vitro activity (%) vs. GIP, cAMP EC50” value is under 0.1%.

Consider {Acetyl(2-(4-imidazolyl))}-[Aib]EGTFTSDYSIAMDEIHQKDFVNWLLAQKC (bridge 15-19) [triple agonist of SEQ ID NO: 90], for which the “In vitro activity (%) vs. GIP, cAMP EC50” value is under 0.1%.

As for H[Aib]QGTFTSDVSKYLDGQAAQEFVAWLLAGGGPSSGAPPPSC [triple agonist of SEQ ID NO: 10], the “In vitro activity (%) vs. GIP, cAMP EC50” value was under 0.1%.

The next test deals with human GLP-1 receptor (human, UniProt P43220 24-463). The test can be described thus: cell-based or functional assay.
As for {Acetyl(2-(4-imidazolyl))}-[Aib]QGTFTSDYSIAMDEIHQKDFVNWLLNTKC (bridge 15-19) [triple agonist of SEQ ID NO: 94], the “In vitro activity (%) vs. GLP-1, cAMP EC50” value came to 0.5%.

{Acetyl(2-(4-imidazolyl))}-[Aib]QGTFTSDYSIAMDEIHQKDFVNWLLAQKC (bridge 15-19) [triple agonist of SEQ ID NO: 92]: the “In vitro activity (%) vs. GLP-1, cAMP EC50” value turned out to be 0.8%.

{Acetyl(2-(4-imidazolyl))}-[Aib]QGTFTSDYSKYLDEKRQKEFVQWLLDTKC (bridge 15-19) [triple agonist of SEQ ID NO: 89]: the “In vitro activity (%) vs. GLP-1, cAMP EC50” value stood at 7.1%.

On to {Acetyl(2-(4-imidazolyl))}-[Aib]QGTFTSDYSIAMDEIHQKDFVNWLLNTC (bridge 15-19) [triple agonist of SEQ ID NO: 87], for which the “In vitro activity (%) vs. GLP-1, cAMP EC50” value came to 0.9%.

Regarding {Acetyl(2-(4-imidazolyl))}-[Aib]QGTFTSDYSKYLDEKRQKEFVNWLLAQKC (bridge 15-19) [triple agonist of SEQ ID NO: 93], the “In vitro activity (%) vs. GLP-1, cAMP EC50” value turned out to be 5.7%.

In the case of [Acetyl(2-(4-imidazolyl))][Aib]QGTFTSDYSIAMDEIHQKDFVNWLLAQC (bridge 16-20) [triple agonist of SEQ ID NO: 85], the “In vitro activity (%) vs. GLP-1, cAMP EC50” value was 4.3%.

With {Acetyl(2-(4-imidazolyl))}-[Aib]EGTFTSDYSIAMDEIHQKDFVDWLLAEKC (bridge 15-19) [triple agonist of SEQ ID NO: 91], the “In vitro activity (%) vs. GLP-1, cAMP EC50” value is 31.9%.

Consider {Acetyl(2-(4-imidazolyl))}-[Aib]QGTFTSDYSKYLDEKRQKEFVNWLLAQC (bridge 15-19) [triple agonist of SEQ ID NO: 86], for which the “In vitro activity (%) vs. GLP-1, cAMP EC50” value was determined as 28.4%.

For {Acetyl(2-(4-imidazolyl))}-[Aib]QGTFTSDYSKYLDEKRQKEFVQWLLNTKC (bridge 15-19) [triple agonist of SEQ ID NO: 88], the “In vitro activity (%) vs. GLP-1, cAMP EC50” value turned out to be 9.6%.

In the case of {Acetyl(2-(4-imidazolyl))}-[Aib]EGTFTSDYSIAMDEIHQKDFVNWLLAQKC (bridge 15-19) [triple agonist of SEQ ID NO: 90], the “In vitro activity (%) vs. GLP-1, cAMP EC50” value came to 7.4%.

On to H[Aib]QGTFTSDVSKYLDGQAAQEFVAWLLAGGGPSSGAPPPSC [triple agonist of SEQ ID NO: 10], for which the “In vitro activity (%) vs. GLP-1, cAMP EC50” value worked out at 46%.

A further test has as its target human GCG receptor (human, UniProt P47871 26-477). The test can be described thus: cell-based or functional assay.
With {Acetyl(2-(4-imidazolyl))}-[Aib]QGTFTSDYSIAMDEIHQKDFVNWLLNTKC (bridge 15-19) [triple agonist of SEQ ID NO: 94], the “In vitro activity (%) vs. Glucagon, cAMP EC50” value is under 0.1%.

For {Acetyl(2-(4-imidazolyl))}-[Aib]QGTFTSDYSIAMDEIHQKDFVNWLLAQKC (bridge 15-19) [triple agonist of SEQ ID NO: 92], the “In vitro activity (%) vs. Glucagon, cAMP EC50” value is under 0.1%.

Consider {Acetyl(2-(4-imidazolyl))}-[Aib]QGTFTSDYSKYLDEKRQKEFVQWLLDTKC (bridge 15-19) [triple agonist of SEQ ID NO: 89], for which the “In vitro activity (%) vs. Glucagon, cAMP EC50” value was found to be 0.7%.

Regarding {Acetyl(2-(4-imidazolyl))}-[Aib]QGTFTSDYSIAMDEIHQKDFVNWLLNTC (bridge 15-19) [triple agonist of SEQ ID NO: 87], the “In vitro activity (%) vs. Glucagon, cAMP EC50” value was under 0.1%.

Turning to {Acetyl(2-(4-imidazolyl))}-[Aib]QGTFTSDYSKYLDEKRQKEFVNWLLAQKC (bridge 15-19) [triple agonist of SEQ ID NO: 93], the “In vitro activity (%) vs. Glucagon, cAMP EC50” value was 0.3%.

Regarding [Acetyl(2-(4-imidazolyl))][Aib]QGTFTSDYSIAMDEIHQKDFVNWLLAQC (bridge 16-20) [triple agonist of SEQ ID NO: 85], the “In vitro activity (%) vs. Glucagon, cAMP EC50” value was under 0.1%.

With {Acetyl(2-(4-imidazolyl))}-[Aib]EGTFTSDYSIAMDEIHQKDFVDWLLAEKC (bridge 15-19) [triple agonist of SEQ ID NO: 91], the “In vitro activity (%) vs. Glucagon, cAMP EC50” value was found to be 16.8%.

For the molecule {Acetyl(2-(4-imidazolyl))}-[Aib]QGTFTSDYSKYLDEKRQKEFVNWLLAQC (bridge 15-19) [triple agonist of SEQ ID NO: 86], the “In vitro activity (%) vs. Glucagon, cAMP EC50” value was determined as 0.4%.

As to {Acetyl(2-(4-imidazolyl))}-[Aib]QGTFTSDYSKYLDEKRQKEFVQWLLNTKC (bridge 15-19) [triple agonist of SEQ ID NO: 88], the “In vitro activity (%) vs. Glucagon, cAMP EC50” value turned out to be 0.3%.

For {Acetyl(2-(4-imidazolyl))}-[Aib]EGTFTSDYSIAMDEIHQKDFVNWLLAQKC (bridge 15-19) [triple agonist of SEQ ID NO: 90], the “In vitro activity (%) vs. Glucagon, cAMP EC50” value was under 0.1%.

On to H[Aib]QGTFTSDVSKYLDGQAAQEFVAWLLAGGGPSSGAPPPSC [triple agonist of SEQ ID NO: 10], for which the “In vitro activity (%) vs. Glucagon, cAMP EC50” value was under 0.1%.
